Reference: a protein production outcome set (Wang et al. 2014)

Assay: label from the status in PepcDB records

Sequence | protein production
MFDFLTHDMLAVVWFFLWCVIWGVYFIADSFSLGAGLLTPFIAADKVQRIQIQSSVGPFWGGNEVWLILAAGGTFAAFPLVFSKMFTFLYLPMMLLLIGLIARGISVEYLHKDDNPRIQQFLMWGWFAGSLLVSLVLGVAFANFFKGLEIASGGVYKGTLPGLFGPYALISGVLFVLMSVTSGALWINVKTEGAVAAKAGDLAKKSALLVLIFALVYLAYSFAGVEGFATNYSSMPVLYLLPVLAVGGAVLSVFFAKKGRAFPAFCSNLLAFLFIVEGGLASIYPYMLKSSISPEYGIDIFEAASSHMTLSVMLGGALVFVPIVIIYQLWAYTLFREKITETEQVEY | failed
MKIILANPRGFCAGVDRAISIVELALEIHGAPIYVRHEVVHNRFVVNGLRERGAIFVEELSEVPDGAIVIFSAHGVSQAVRQEAKDRNLKVFDATCPLVTKVHMQVARASRKGTKAILIGHKGHPEVEGTMGQYSNEDGGIFLIEKVEDIARLPMQENDNLTFMTQTTLSLDDTAETIAALKEKYPAIQGPHKNDICYATTNRQEAVRELAKLSDLVLVVGSKNSSNSNRLAELASRMGVKSQLLDEPADIQADWFNDVKTIGITAGASAPEELGQSIISRLKRFGAN | failed
MPLTIRPARFEELPAVQAIERLSARRFVGWIDALADDDPSPLERLAERSASGGLLVADVETGEGPKAAGFVMFRPMEDSLYIEQIDVAPAFERRRIGATLINAVADRAVALGLSRLTLSTFREIPWNAPYYRRLGFVDLDDEA | failed
MIKVWLQQGRGLWLALFLGLLSPALVHAEEAPPGLVKVPLDRRVIDLTATLDSATQERMVHKLEALEQRRGAQIAVMLVPNLGQQSIEALSNQLFRAWKLGRKGVDDGILLLVAKNDHKVRIEVGYGLEPVVTDLLAGQIIAQDLTPAFRQGDFAGGIDRALDDLILLVDGGSLPEPAGLAVPLEAYALLLAFVFGSVAGVMLAAGWNWRRVLGGAVVLMAVLVGAVGGHEWLAQLFLVPLCMLIGGATFAGLWQARRVFYGVLGLLLYIGLLTLVSQYLGRLTFLYGLAWPAGVLLVLGGHWLLYWMMRNSWRKSPRGFLWRFAVLLTLVLLMGLGVDAWQAAQRWLRVVPFAYFLSFILFAGGSGFRWSSGGGSSSGGRSSSGGGFSGGGGSSGGGGASGSW | failed
MSDTNSGGGRQAASGPAPRGRLPFRRRVALVAVARPLIVTVGLVTAYYLLPLDERLSAGTLVSLVCGLLAVLLVFCWEVRAITRSPHPRLRAIEGLAATLVLFLVLFAGSYYLLGRSAPGSFSEPLNRTDALYFTLTTFATVGFGDITARSETGRILTMAQMTGGLLLVGVAARVLASAVQAGLHRQGRGPAASPRSGAAEEPEAGP | failed
MTPIAQRDGQAIQLVGFDGDDTLWKSEDYYRTAEADFEAILSGYLDLGDSRMQQHLLAVERRNLKIFGYGAKGMTLSMIETAIELTEARIEARDIQRIVEIGRATLQHPVEVIAGVREAVAAIAADYAVVLITKGDLFHQEQKIEQSGLSDLFPRIEVVSEKDPQTYARVLSEFDLPAERFVMIGNSLRSDVEPVLAIGGWGIYTPYAVTWAHEQDHGVAADEPRLREVPDPSGWPAAVRALDAQAGRQQ | not failed
MKRLAKTTLMTAMVAMVSFSIYAQTGRDIAQRVKDRPDGDTRRSELTMKLINKRGAVRERKLISYSIDMGKDKKDKKTIMFFLYPGDVKGTGFLTWDYDQIGKDDDKWLYLPAMKKTRRISGASAKKDYFMGSDFTYDDMGSRNVDEDTHKLLGEETFDGHKCWKLESTSKDQRDVFSKKIAWIRQDCLIPVRVEYYDRMNRLHRLLELSDIAQVDGFWMAQKMNMSNVQTGHRTVLEIKKPEFNRPIDESKFTVTSLEKGSL | not failed
MPKFYCDYCDTYLTHDSPSVRKTHCSGRKHKENVKDYYQKWMEEQAQSLIDKTTAAFQQGK | not failed
MVTIKEYSVPQSLEEAYKILISKKNNVILGGCGFIKLSNKNIGTAIDLKDINLNYIKEDEKNILIGADTSLRSLEIDKTIKNYCSGILSSAVSNIVGVQFRQGARIGASVFSKYGFSDLIPALLVVGAKVRLYNKGILELSEFLDSELSRDILVEVILPKKDAIAVFDSIRKCTGDFSVLNSAMLKENDTYKIAIGARPQKARLALEASNILNKEKDIDKASIVASKELTYGSNMRASKEYRKDMASALVKRMYNAIEEGMYND | failed
MATRAPASTLRQIPSGIWMLGCVSLLMDISSEIIHSLLPVFMVTTLGASALAVGLIEGAAEATALIVKVFSGVLSDYLGKRKALAVLGYGLGALSKPLFAVAPGVGTILAARLSDRIGKGIRGAPRDALVADIAPAHLRGAAFGLRQALDTVGAFLGPLIAIGLMMLWANDFRAIFWVAVVPGVLSVALLAFGVKEPQTHTGDKRVNPIRRANLARLGPAYWGVVAVGTAFALARFSEAFLILRVQQEGLPLFMAPLVLVTMNAVFAVTAYPFGKLADNCSHDKLLVAGLAVLIVADTVLAVGSHWSIALVGVALWGLHMGMTQGLLATMVADAAPADLRGTAFGVFNLASGLALLAASVMAGWLWDRHGAAATFHAGAGFCVLTIALLIHRLRNRPASGAATR | failed
MVHHGQMHAQPGVGLRPDTPVASGQLPSTSIRSRRSGISKAQRETWERLWPELGLLALPQSPRGTPVDTRAWFGRDAPVVLEIGSGSGTSTLAMAKAEPHVDVIAVDVYRRGLAQLLCAIDKVGSDGINIRLILGNAVDVLQHLIAPDSLCGVRVFFPDPWPKARHHKRRLLQPATMALIADRLVPSGVLHAATDHPGYAEHIAAAGDAEPRLVRVDPDTELLPISVVRPATKYERKAQLGGGAVIELLWKKHGCSERDLKIR | failed
MDQNTTPAPGLRETKKRETRQLISDHATRLFIERGFEHTTIAEIADAARVAKKTVTNYFPRKEDLALDHQDEFVAALAATVTARGAGETPLTALRHAFLAAVAAQDPVAGFAGQAFTRMIADSPTLTACLRGLHDRREEALTAALAGTTDTPPDDITPRTAAALLGGVHRVLFNRIQELTLAGRATPEIAEVLAREAPRAFDLLTPALAEYGRRP | not failed
SLWQPQTGDIIFQISRSSQSKAIQLATHSDYSHTGMLVMRNKKPYVFEAVGPVKYTPLKQWIAHGEKGKYVVRRVEGGLSVEQQQKLAQTAKRYLGKPYDFSFSWSDDRQYCSEVVWKVYQNALGMRVGEQQKLKEFDLSNPLVQAKLKERYGKNIPLEETVVSPQAVFDAPQLTTVAKEWPLFSW | not failed
PKATAQMEGRLQEFLTAYAPGARLALADGVLGFIHHQIVELARDCLAKSGENLVTSRYFLEMQEKLERLLQDAHERSDSEEVSFIVQLVRKLLIIISRPAR | not failed
MVQVEKGHVAVVFLNDPERRNPLSPEMALSLLQALDDLEADPGVRAVVLTGRGKAFSAGADLAFLERVTELGAEENYRHSLSLMRLFHRVYTYPKPTVAAVNGPAVAGGAGLALACDLVVMDEEARLGYTEVKIGFVAALVSVILVRAVGEKAAKDLLLTGRLVEAREAKALGLVNRIAPPGKALEEAKALAEEVAKNAPTSLRLTKELLLALPGMGLEDGFRLAALANAWVRETGDLKEGIRAFFEKRPPRF | not failed
MMLRFSVITYTFGRLTTKKHNKVMKKLIFLFAFCLTVTNIFAQTDPSQLKKEGSDAFNAKNYPVAYAKFSEYLKQTNNQDSAIAYYCGMAADEVKKYAEAVTFFDIAIQKKFNIGNAYARKALALDAMKKTDEYVATLEEGLKVDPDNKTMIKNYGLHYLKAGIAAQKAGKVEEAEECFKKVIPLDHKTYKTNALYSLGVLCYNDGANILKKAAPLANSDADKYAAEKEKADGRFKEAIGYLEEATKVSPEDTKSKTMLSQVQAAMK | failed
MTAAQDGRIITFYSYKGGTGRTMALANTAWILAANGKRVLAVDWDLEAPGLDRFFRPFLDPHALAATSGIIDIINEYAWAATSGSQRSGAWHQEYAHVEQHAVSLTPERHGLRFAKGGSLDFLSAGRQDRSYSATVSSFEWDNFYERLGGGLFLDALRDDMKASYEYVLIDSRTGLSDNADICTIQMPDMLVDCFTLSDQSLDGAAAVARSVEDGYRKRKIRVLPVPMRIDEGEKEKVDAGRALARLKFDGLPKGLGGEDLSPEELSQYWGAVEIPYRPYYAYEETLATVGDESGIANSLLSAFERLTNVISDGEVASLPPVPEPVRLRCLDAFTRRRPLTTAADVVVAYAAENRMWADWIEAVLKHSGCNVTLYDVSAGPVERPDAATRALVLLSNAFQKSRYGEDVWRAFTGGDPDGAHPALVPLRVDEVRLPDSYLAHEPVDLHRLEEAQCVAGLLSALELPAQPTDGAPAAPRFPGSTPATWNAPQRNQTFTGRNVILTQVREQLRSGMSVVLPQPQALTGLGGVGKTQVALEYVHRFMADYDLVWWTSAESVDNVVASLAELGARIGAPGGEDMALVSRETVQMLARGVPTKRWILIFDNADNPEQLTRYFPAGGGGHILVTSRNQAWATQGQSLPVDVFLRQESIEHLSRRAPGLTAHEADRVATAVGDLPLAVEQAAAWLAETATPIEDYLRQLAEQTTDVLDLNQPADYPETVAATWNISIARLKDRSPASVRLLQLCAFLAPEPISSHLLYSKEMIDELRKVDPTLQESLLLGRVIREIARFALAKVDQVSNSIQVHRLVQAVIRSQLTQEEQRHARHVVHTVLAGARPDGDEPIDDPETWPRFGVIWPHLSASDVRNCTENEPRRLLIDRVRYLWKRGDFPAAQQLAEDLLGHWKPLLGEEDVQYLYLRCQLANVMRSQGRYVESRAINTELLEQQRRVLGAAHPHTYVTMSSLASDLAALGEYTLAVELAREAHDGFSQIFHESHRRTLSAANNLALALRMVGRYGDARSLDQDTYDRRMEVLGPDHPYTLASAGRLGRDLREVGRYEDSVSLLSRAYDAHKRILGKGFPGTLSCAKSLAVSLRRTGRLEDARRLTTATRAQYRTQYDAHTPDSLACDLNMAADLYAADEREAAREVAKEALTEYMKVPGEEHPYTQAALNNLGIFHWGCGDAVEAEAVFRQVLPRMSDVLGDRHPHTLFTEANFANVLADQGRLEEAWALEKRAMDTLRTVLGPQHPETLAVVSNCALTLGALGRTDEARRLREETLAELNRQGRQLGENNGIIQLTGHERRIYRDLEPLAV | failed
MRIHSPYPASWALAQRIGYLYSEGEIIYLADTPFERLLDIQRQVGQCQTMTSLSQADFEARLEAVFHQNTGESQQIAQDIDQSVDLLSLSEEMPANEDLLNEDSAAPVIRLINAILSEAIKETASDIHIETYEKTMSIRFRIDGVLRTILQPNKKLAALLISRIKVMARLDIAEKRIPQDGRISLRIGRRNIDVRVSTLPSIYGERAVLRLLDKNSLQLSLNNLGMTAADKQDLENLIQLPHGIILVTGPTGSGKSTTLYAILSALNTPGRNILTVEDPVEYELEGIGQTQVNTRVDMSFARGLRAILRQDPDVVMVGEIRDTETAQIAVQASLTGHLVLSTLHTNSASGAVTRLRDMGVESFLLSSSLAGIIAQRLVRRLCPQCRQFTPVSPQQAQMFKYHQLAVTTIGTPVGCPHCHQSGYQGRMAIHEMMVVTPELRAAIHENVDEQALERLVRQQHKALIKNGLQKVISGDTSWDEVMRVASATLESEA | failed
MAYVLTETSAGYALLKASDKKIYKSSSLIQDLDSSDKVLKEFKIAAFSKFNSAANALEEANSIIEGKVSSQLEKLLEEIKKDKKSTLIVSETKLANAINKLGLNFNVVSDAVTLDIYRAIKEYLPELLPGMSDNDLSKMSLGLAHSIGRHKLKFSADKVDVMIIQAIALLDDLDKELNTYAMRCKEWYGWHFPELAKIVTDSVAYARIILTMGIRSKASETDLSEILPEEIEERVKTAAEVSMGTEITQTDLDNINALAEQIVEFAAYREQLSNYLSARMKAIAPNLTQLVGELVGARLIAHSGSLISLAKSPASTIQILGAEKALFRALKTKHDTPKYGLLYHASLVGQATGKNKGKIARVLAAKAAVSLRYDALAEDRDDSGDIGLESRAKVENRLSQLEGRDLRTTPKVVREAKKVEMTEARAYNADADTAKAASDSESDSDDEEEEKKEKKEKKRKRDDDEDSKDSKKAKKEKKDKKEKKEKKEKKEKKEKKEKKEKKSKKEKKEKK | failed
